Laboratory results published in publication doi:10.1101/2021.03.19.436134.
Several values for one entry are separate records, joined by “and”; a condition that tells them apart may be missing. Equal values may be shown once. Each block holds one substance with its values, some of them ahead of it.

Experiments:
[1] = target: SaArlH, ArlH of Sulfolobus acidocaldarius, His-tagged, non-phosphorylated (Sulfolobus acidocaldarius); experiment: BLI
[2] = target: labelled, biotinylated PfArlI^C290S/T411C (Pyrococcus furiosus); experiment: single-molecule TIRF photobleaching step counting
[3] = target: biotinylated PfArlI, ArlI motor ATPase of Pyrococcus furiosus with AviTag, unlabelled, immobilised (Pyrococcus furiosus); experiment: single-molecule TIRF photobleaching step counting
[4] = target: PfArlH^S109C, single cysteine mutant of Pyrococcus furiosus ArlH labelled with Atto550 and Atto647N, non-phosphorylated (Pyrococcus furiosus); experiment: single-molecule TIRF photobleaching step counting

Kd [1]: 638 nM
Substance: SaArlI, ArlI motor ATPase of Sulfolobus acidocaldarius (Strep-SaArlI) (enzyme)

stoichiometry N [2]: 3 and 2 and 6
Substance: labelled, biotinylated PfArlI^C290S/T411C (enzyme)

stoichiometry N [3]: 1
stoichiometry N [4]: 6 and 3
Substance: PfArlH^S109C, single cysteine mutant of Pyrococcus furiosus ArlH labelled with Atto550 and Atto647N, non-phosphorylated (natural protein)
